Experiments:
[1] = target: caspase 7 lacking the N-terminal 53 amino acid prodomain (caspase 7^53) (human) (UniProt P55210); experiment: cell-based or functional assay
[2] = target: C. elegans caspase CED-3 (C. elegans) (UniProt P42573); experiment: cell-based or functional assay
Sequence of UniProt P42573 (P42573 whole entry): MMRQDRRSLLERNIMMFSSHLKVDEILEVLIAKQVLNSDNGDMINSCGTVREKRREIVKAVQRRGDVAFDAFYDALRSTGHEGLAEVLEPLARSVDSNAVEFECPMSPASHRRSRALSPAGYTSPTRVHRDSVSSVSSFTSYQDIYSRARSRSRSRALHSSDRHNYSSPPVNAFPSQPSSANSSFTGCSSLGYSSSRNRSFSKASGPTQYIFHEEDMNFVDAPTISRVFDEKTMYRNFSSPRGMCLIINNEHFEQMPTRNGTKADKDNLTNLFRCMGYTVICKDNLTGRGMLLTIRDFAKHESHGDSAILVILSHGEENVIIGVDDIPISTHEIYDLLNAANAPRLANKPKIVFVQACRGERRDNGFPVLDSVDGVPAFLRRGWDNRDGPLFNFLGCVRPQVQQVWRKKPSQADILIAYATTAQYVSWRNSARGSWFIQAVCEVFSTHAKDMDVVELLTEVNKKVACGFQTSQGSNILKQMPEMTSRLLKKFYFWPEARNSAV

Sequence of UniProt P55210 (P55210 54-303 limits assumed): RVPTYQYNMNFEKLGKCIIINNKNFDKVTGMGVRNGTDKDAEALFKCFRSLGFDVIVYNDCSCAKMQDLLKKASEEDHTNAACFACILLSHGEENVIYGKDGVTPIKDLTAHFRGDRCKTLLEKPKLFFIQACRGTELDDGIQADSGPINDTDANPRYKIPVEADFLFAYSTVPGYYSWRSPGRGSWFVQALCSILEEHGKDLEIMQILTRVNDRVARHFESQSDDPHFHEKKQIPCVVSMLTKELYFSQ

| Substance | beta-gal activity (ONPG assay) of the caspase-dependent CLBDG6 LexA/lacZ reporter in yeast (fold inhibition) [1] | beta-gal activity (ONPG assay) of the caspase-dependent CLBDG6 LexA/lacZ reporter in yeast (fold inhibition) [2] |
| --- | --- | --- |
| mouse IAP MIHA (from UniProt Q60989 1-496) | 2 | – |
| baculovirus p35 (from UniProt P08160 1-299) | 5 | 5 |
